We go through 1 molecule from paper PMC11612968, “Endo-bind-n-seq: identifying RNA motifs of RNA binding proteins isolated from endogenous sources”.

This series addresses T1, GST-ZC3H7B(415-956) (UniProt Q9UGR2 415-956).
T1 sequence: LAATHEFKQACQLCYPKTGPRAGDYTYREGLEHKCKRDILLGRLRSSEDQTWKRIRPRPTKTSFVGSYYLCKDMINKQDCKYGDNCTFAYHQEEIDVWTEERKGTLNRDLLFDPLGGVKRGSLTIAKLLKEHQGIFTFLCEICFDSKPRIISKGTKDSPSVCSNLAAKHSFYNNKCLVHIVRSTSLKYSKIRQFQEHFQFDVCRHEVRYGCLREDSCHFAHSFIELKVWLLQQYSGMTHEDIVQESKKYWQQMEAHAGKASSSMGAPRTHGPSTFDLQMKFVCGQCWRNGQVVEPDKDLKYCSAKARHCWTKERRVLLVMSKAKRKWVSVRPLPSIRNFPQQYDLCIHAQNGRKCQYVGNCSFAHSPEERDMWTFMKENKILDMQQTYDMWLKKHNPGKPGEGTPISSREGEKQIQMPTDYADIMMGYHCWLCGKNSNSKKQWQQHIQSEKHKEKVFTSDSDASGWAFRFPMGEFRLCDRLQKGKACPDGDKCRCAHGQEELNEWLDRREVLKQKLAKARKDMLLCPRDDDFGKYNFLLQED
Put plainly: filter binding; Filter binding: 50 mM Tris-HCl pH 8.0, 150 mM NaCl, 5% glycerol, 20 C; EMSA: 20 mM HEPES-KOH pH 7.4, 100 mM NaCl, 1 mM MgCl2, 0.1% Tween20, 40 mM EDTA, 10% glycerol, 70 C; competition: 25 mM Tris-HCl pH 7.5, 150 mM KCl, 3 mM MgCl2, 0.01% NP-40, 1 mg/ml BSA, 1 mM DTT, 5% glycerol, RT. Conditions: protein: recombinant; tags: N-terminal GST (pGEX-4T-1, TEV site); label: 5' 32P.

B1: ZC3H7B motif RNA (AUAG) (ssRNA)
RNA: AUAGUGUAGU
As for B1, the binding result was “binds”.
